Reference: US20040138113A1, “Use of corticotroph-derived glycoprotein hormone to treat inflammation and potentiate glucocorticoid action” (priority 2002, published 2004)

Assays:
[1] = biological target: thyroid-stimulating hormone (TSH) receptor (human) (UniProt P16473); assay: flow cytometry, human PBMC gated on CD3+ T cells; CGH-biotin 10 ug/ml then streptavidin-PE; background without CGH-biotin 4.3
[2] = biological target: thyroid-stimulating hormone (TSH) receptor (human) (UniProt P16473); assay: flow cytometry, human PBMC gated on CD19+ B cells; CGH-biotin 10 ug/ml then streptavidin-PE; background without CGH-biotin 3.8
[3] = biological target: thyroid-stimulating hormone (TSH) receptor (human) (UniProt P16473); assay: flow cytometry, human PBMC gated on CD56+ NK cells; CGH-biotin 10 ug/ml then streptavidin-PE; background without CGH-biotin 3.6
[4] = biological target: thyroid-stimulating hormone (TSH) receptor (human) (UniProt P16473); assay: flow cytometry, human PBMC gated on CD14+ monocytes; CGH-biotin 10 ug/ml then streptavidin-PE; background without CGH-biotin 9.1
[5] = biological target: thyroid-stimulating hormone (TSH) receptor (human) (UniProt P16473); assay: flow cytometry, human PBMC gated on CD4+ CD45RA+ naive CD4+ T cells; CGH-biotin 10 ug/ml then streptavidin-PE; background without CGH-biotin 3.5
[6] = biological target: thyroid-stimulating hormone (TSH) receptor (human) (UniProt P16473); assay: flow cytometry, human PBMC gated on CD4+ CD45RA- memory CD4+ T cells; CGH-biotin 10 ug/ml then streptavidin-PE; background without CGH-biotin 3.4
[7] = biological target: thyroid-stimulating hormone (TSH) receptor (human), P16473; assay: cell-based or functional assay
[8] = test system: LPS-induced mild endotoxemia mouse model; assay: LPS-induced mild endotoxemia mouse model, serum cytokines by ELISA; type: in vivo, C57B1/6 mice; details: for effect on serum IL-6 levels / effect on serum TNFα levels: 2 mg/kg of the monomer, data not shown
Procedure: An in vivo experiment was designed to examine the effect of CGH in a mouse model of LPS-induced mild endotoxemia. This model mimics acute endotoxemia/sepsis by challenging mice with a low, non-lethal dose of bacterial endotoxin (lipopolysaccharide, LPS). Serum is collected at various timepoints (1-8 hours) after intraperitoneal LPS injection and analyzed for altered expression of a wide variety of pro- and anti-inflammatory cytokines and acute phase proteins that mediate the inflammatory response. The model provides a means to assess the potential anti-inflammatory effects of therapeutic candidates during a robust inflammatory response. To initially assess the model, we measured proinflammatory cytokines in a pilot experiment to collect reference data for the model.
C57B1/6 mice (Charles River Laboratories; 5 mice/group) were treated i.p. with PBS, 0.2 mg/kg CGH in PBS, or 2 mg/kg CGH in PBS 1 hour prior to LPS challenge. The mice were then challenged with 25 ug of LPS i.p. and bled at 1 hour and 4 hours after LPS injection. Serum was analyzed for TNFα (1 hour) and IL-6 (4 hours) levels by ELISA.
To determine if CGH would potentiate the effect of a sub-maximal dose of glucocorticoid, groups of 10 C57B1/6 mice each were treated i.p. with PBS, 0.15 or 1.5 mg/kg Dex, 2 mg/kg CGH, or a combination of CGH and low or high doses of Dex, 1 hour prior to injection of 25 ug LPS i.p. As shown in TABLE 3 (Expt #2), either 2 mg/kg CGH or 1.5 mg/kg Dex treatment alone (1 hour prior to LPS) caused a significant drop in serum TNFα levels at 1 hour, as observed in previous experiments. The effects of CGH administered in conjunction with Dex on inhibition of TNFα production were greater than either dose of Dex alone.

[9] = biological target: T1, glycoprotein hormone beta 5 (GPHB5) (human, UniProt Q86YW7 25-130, one N-linked glycosylation (site not stated)); assay: co-expression in CHO cells (Example 5)
T1 construct: Subunit co-expressed with GPHA2 in CHO cells; also called beta subunit of CGH
T1 sequence: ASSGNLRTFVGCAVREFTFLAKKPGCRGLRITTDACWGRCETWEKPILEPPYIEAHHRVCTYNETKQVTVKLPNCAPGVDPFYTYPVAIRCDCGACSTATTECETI

NCI-H295R = assay: CRE-luciferase reporter assay of cAMP-mediated gene induction in adrenal cortex cells; type: cell-based, human; details: purified CGH heterodimer
Excerpt: Summary: A human adrenal cortex cell line, NCI-H295R, was used to study signal transduction of CGH. NCI-H295R was transduced with recombinant adenovirus containing a reporter construct, a firefly luciferase gene under the control of cAMP response element (CRE) enhancer sequences. This assay system detects cAMP-mediated gene induction downstream of activation of Gs-coupled GPCR's (G-protein coupled receptors). […] Typically, CGH elicited a maximal response of 15-40-fold luciferase induction above control media.
NCI-H295R cells were obtained from the ATCC (CRL-2128, Manassas, Va.) and cultured in growth medium as follows: 1:1 mixture of Dulbecco's modified Eagle's medium and Ham's F12 medium with L-glutamine (D-MEM/F-12; GIBCO, cat.# 11320-033) containing 25 mM HEPES buffer (GIBCO, Invitrogen, Carlsbad, Calif., cat.# 15630-080), 1 mM sodium pyruvate (GIBCO, cat.# 11360-070), 1% ITS+1 media supplement (Sigma St. Louis, Mo. cat# 12521) and 2.5% Nu-Serum I (BD Biosciences, Lexington, Ky. cat.#355100). Cells were cultured at 37° C. in a 5% CO2 humidified incubator. […]
Promega's Luciferase Assay System (Promega, Madison, Wis., cat. # E1500) was used to process the treated cells. […] Luciferase activity was measured on a microplate luminometer (PerkinElmer Life Sciences, Inc., model LB 96V2R) following automated injection of luciferase assay substrate.

TSHR = biological target: T2, TSHR (Homo sapiens, UniProt P16473); assay: Release of free fatty acids (FFA) from adipose cells; type: cell-based
T2 construct: In adipose cells, sub-nanomolar levels of CGH stimulate release of free fatty acids (FFA); endogenous in cells

adrenal cortex = assay: Adenoviral overexpression of CGH in mice, adrenal gland histopathology; type: in vivo, C57BL6 mice; details: GPHA2- and GPHB5-expressing adenovirus by tail vein, day 20, all eight mice
Excerpt: Summary: Mice were exposed to CGH through infection with adenovirus particles expressing GPHA2 and GPHB5, leading to overexpression and secretion of CGH from the liver of these animals. […] The hypertrophy was apparent in the inner cortical layers, the zona fasciculata and the zona reticularis. Similarly, mice were exposed to CGH through intraperitoneal injection of recombinant CGH protein alone, recombinant CGH protein along with the glucocorticoid Dexamethasone (Dex), Dex alone, or PBS alone daily for two weeks.
Each group consisted of eight female C57BL6 mice. 7.5×10^11 particles each of GPHA2- and GPHB5-expressing adenovirus were administered by tail vein injection to the experimental group, while 1.5×10^11 particles of adenovirus expressing a parental vector alone were administered to the control group. Animals were sacrificed on day 20 following the injection and tissues were evaluated by a pathologist.

[10] = test system: neutrophils infiltrating the ears; assay: Neutrophil infiltration in ears of DTH mice, anti-Gr-1 immunohistochemistry and histomorphometry; type: in vivo, C57B1/6 mice; details: anti-Gr-1 staining, DTH experiment #1
Procedure: Ears from mice in DTH experiment #1 were analyzed by immunohistochemistry to assess which cell types were most affected by CGH treatment. Ears were fixed in Zinc/Tris buffer (2.3 mM calcium acetate/31.6 mM zinc acetate/36.7 mM zinc chloride in 0.1M Tris-HCL buffer, pH 7.4) for 24 hours at room temperature and stained with antibodies specific for CD4, CD8, CD11c, and Gr-1 (neutrophils). […] Ears were stained using a TechMate 500 autoimmunostainer (Biotech/Ventana) MIP protocol with some modifications. After drying the slides for 1 hour at 60° C., the sections were stained with a rat anti-mouse Gr-1 mAb (clone 7/4, Serotec, isotype rat IgG2a, used at 1.25 ug/ml final dilution), overnight at 4° C. This step was followed, after a wash, by biotinylated rabbit anti-rat IgG secondary antibody (Dako, used at 10 ug/ml in PBS with 2% normal rabbit serum and 2% nonfat dry milk) for 45 min. The sections were then washed and treated with HP Block (1.5% H2O2 in 50% methanol) 3 times, 7 min each, followed by 25 min in avidin-biotin complex, 3 times of 4 min each in DAB (Diaminobenzidine), then with Methyl green for 10 min.
Histomorphometry was performed to obtain the average pixel density of neutrophils per unit length (1 mm) present in the ear samples. […]

thymus = test system: thymus; design: species or system C57B1/6 mice; details: mouse, in vivo
Excerpt: Since the receptor for CGH, TSH-R, is expressed by the adrenal glands, there was concern that the anti-inflammatory effects observed might be an indirect effect of increasing endogenous corticosteroid production in CGH-treated mice. One well-established side effect of increasing either exogenous or endogenous corticosteroid levels is substantial atrophy of the thymus, as the developing T cells are induced to undergo apoptosis. Therefore, the thymuses of the CGH and Dex-treated mice in the DTH experiments were analyzed. […] Thus, CGH seems to be mediating its anti-inflammatory effects in a manner distinct from that of exgenous glucocorticoids like Dex.

[11] = 2 mg/kg CGH 1 hour prior to LPS, Expt #1

Sequence of thyroid-stimulating hormone (TSH) receptor (human) (P16473 21-764): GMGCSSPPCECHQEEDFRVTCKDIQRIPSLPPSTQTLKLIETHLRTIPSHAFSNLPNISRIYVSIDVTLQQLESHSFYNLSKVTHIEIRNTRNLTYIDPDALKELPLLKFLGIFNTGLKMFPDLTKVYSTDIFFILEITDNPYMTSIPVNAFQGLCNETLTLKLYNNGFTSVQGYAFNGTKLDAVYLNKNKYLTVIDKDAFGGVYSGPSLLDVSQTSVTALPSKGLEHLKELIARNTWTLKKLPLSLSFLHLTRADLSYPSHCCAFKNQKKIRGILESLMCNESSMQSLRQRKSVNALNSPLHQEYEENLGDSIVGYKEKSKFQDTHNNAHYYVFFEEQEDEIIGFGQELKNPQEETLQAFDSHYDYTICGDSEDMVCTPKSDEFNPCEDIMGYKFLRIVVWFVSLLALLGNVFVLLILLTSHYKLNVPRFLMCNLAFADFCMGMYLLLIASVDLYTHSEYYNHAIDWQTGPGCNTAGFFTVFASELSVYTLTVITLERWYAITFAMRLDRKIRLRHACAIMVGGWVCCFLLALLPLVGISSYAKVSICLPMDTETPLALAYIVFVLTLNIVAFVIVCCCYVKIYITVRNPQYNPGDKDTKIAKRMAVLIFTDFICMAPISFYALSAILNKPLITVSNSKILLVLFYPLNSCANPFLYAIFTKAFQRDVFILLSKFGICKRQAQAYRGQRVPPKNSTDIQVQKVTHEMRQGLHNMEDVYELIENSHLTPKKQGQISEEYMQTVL
Sequence of thyroid-stimulating hormone (TSH) receptor (human), P16473 (P16473 21-764): as above
T2 sequence (P16473 21-764, species assumed): as the sequence (P16473 21-764) above

Molecule: CGH-biotin (biotinylated corticotroph-derived glycoprotein hormone) (from UniProt Q96T91 24-129; Q86YW7 25-130) (ligand)
- FL-2 MFI [1]: 9.1 MFI
- FL-2 MFI [2]: 12.9 MFI
- FL-2 MFI [3]: 11.9 MFI
- FL-2 MFI [4]: 56.4 MFI
- FL-2 MFI [5]: 4.9 MFI
- FL-2 MFI [6]: 8.7 MFI

B1: Corticotroph-derived glycoprotein hormone (CGH), purified recombinant heterodimer, Q96T91 24-129; Q86YW7 25-130 (ligand)
chain 1: QEAVIPGCHLHPFNVTVRSDRQGTCQGSHVAQACVGHCESSAFPSRYSVLVASGYRHNITSVSQCCTISGLKKVKVQLQCVGSRREELEIFTARACQCDMCRLSRY
chain 2: T1 sequence
modifications: here or on the partner: one N-linked glycosylation on the GPHB5 subunit (site not stated); two N-linked glycosylations on the GPHA2 subunit (sites not given)
- CRE-driven luciferase reporter induction (cAMP-mediated) in NCI-H295R human adrenal cortex cells [7]: 15 to 40 fold

B2: zlut1: monomer of CGH tested alone; not defined further, presumably the GPHB5 beta subunit (protein, UniProt Q86YW7 25-130, looked up)
Glycoprotein hormone beta-5: T1 sequence
- effect on serum IL-6 levels [8]: neither of these monomers had any effect
- effect on serum TNFα levels [8]: neither of these monomers had any effect

B3: glycoprotein hormone alpha2 (GPHA2) (ligand)
chain: B1 chain 1
modifications: two N-linked glycosylations (sites not given)
notes: Subunit co-expressed with GPHB5 in CHO cells; also called Zsig51; zsig51
- binding result [9]: binds

B4: zsig51: alpha subunit of CGH, glycoprotein hormone alpha2, previously called Zsig51; tested as monomer (protein)
chain: B1 chain 1
- effect on serum IL-6 levels [8]: neither of these monomers had any effect
- effect on serum TNFα levels [8]: neither of these monomers had any effect

B5: CGH: heterodimeric protein hormone of alpha subunit GPHA2 (SEQ ID NO:3) and beta subunit GPHB5 (SEQ ID NO:6) (protein, listed as Homo sapiens)
alpha: B1 chain 1
beta: T1 sequence
- dose-dependent induction of luciferase activity compared with 10 μM forskolin (NCI-H295R): equal to or higher than that induced by 10 μM forskolin
- levels that stimulate release of free fatty acids (FFA) (TSHR): sub-nanomolar
- molar concentration stimulating release of FFA, lower compared to TSH (TSHR; compared to TSH): 10 fold
- histomorphological changes of the inner adrenal cortical cells (adrenal cortex): profound hypertrophy and uniformly finely, foamy vacuolization
- increase of serum IL-6 levels at the 4 hour time point [8, 11]: about 70%
- reduction of the TNFα induction at the 1 hour time point [8, 11]: about 60%
- number of neutrophils infiltrating the ears compared to the PBS-treated controls [10]: clear reduction
- relative proportion of each thymocyte subset compared with the PBS-treated group (thymus): not significantly different
